Test results as given in article doi:10.1101/215566.

Target: CBD-NpuDnaE_(NΔ16)
Test: SPR

In the case of NpuDnaEC16-eGFP (domain or fragment), the Kd is reported as 1.6 nM.
